# Measured values published in article PMC5562721.
# Target: Recombinant Ebola virus (EBOV) glycoprotein (Ebola virus (Zaire ebolavirus)) (UniProt Q05320)
# Assay: SEC + cross-linking
substance,measurement,value
Recombinant Ebola virus (EBOV) glycoprotein (from UniProt Q05320) (natural protein),stoichiometry N,3
